Assay results published in US20160264681A1 (ACCELERON PHARMA, published 2016).
Where two headings read alike, the source gives them in different places.

Assays:
Assay in all cases: cell-based or functional assay
GDF11 [1] = biological target: T1, GDF11 (UniProt O95390 299-407)
T1 sequence (looked up): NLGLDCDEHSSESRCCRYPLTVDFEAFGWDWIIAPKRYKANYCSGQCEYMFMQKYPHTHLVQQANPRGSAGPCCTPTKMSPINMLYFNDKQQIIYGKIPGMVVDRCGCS

Activin A [2] = biological target: T2, Activin A (UniProt P08476 311-426)
T2 sequence (looked up): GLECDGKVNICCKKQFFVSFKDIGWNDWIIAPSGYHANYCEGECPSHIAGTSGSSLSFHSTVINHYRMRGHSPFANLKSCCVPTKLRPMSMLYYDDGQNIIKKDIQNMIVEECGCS

GDF11 [3] = biological target: T1, GDF11; remark: listed apart in the source
Activin A [4] = biological target: T2, Activin A; remark: listed apart in the source

B1: ActRIIb-hFc (R64, 23-131) (Fc fusion)
chain: EAETRECIYYNANWELERTNQSGLERCEGEQDKRLHCYASWRNSSGTIELVKKGCWLDDFNCYDRQECVATEENPQVYFCCCEGNFCNERFTHLPEAGGPEVTYEPPPTGGGTHTCPPCPAPELLGGPSVFLFPPKPKDTLMISRTPEVTCVVVDVSHEDPEVKFNWYVDGVEVHNAKTKPREEQYNSTYRVVSVLTVLHQDWLNGKEYKCKVSNKALPVPIEKTISKAKGQPREPQVYTLPPSREEMTKNQVSLTCLVKGFYPSDIAVEWESNGQPENNYKTTPPVLDSDGSFFLYSKLTVDKSRWQQGNVFSCSVMHEALHNHYTQKSLSLSPGK
GDF11 [1]
  IC50 (ng/mL), reporter gene assay, conditioned media: 60 ng/mL
Activin A [2]
  IC50 (ng/mL), reporter gene assay, conditioned media: 43 ng/mL

B2: ActRIIb-hFc (R64, 21-131) (Fc fusion)
chain: RGEAETRECIYYNANWELERTNQSGLERCEGEQDKRLHCYASWRNSSGTIELVKKGCWLDDFNCYDRQECVATEENPQVYFCCCEGNFCNERFTHLPEAGGPEVTYEPPPTGGGTHTCPPCPAPELLGGPSVFLFPPKPKDTLMISRTPEVTCVVVDVSHEDPEVKFNWYVDGVEVHNAKTKPREEQYNSTYRVVSVLTVLHQDWLNGKEYKCKVSNKALPVPIEKTISKAKGQPREPQVYTLPPSREEMTKNQVSLTCLVKGFYPSDIAVEWESNGQPENNYKTTPPVLDSDGSFFLYSKLTVDKSRWQQGNVFSCSVMHEALHNHYTQKSLSLSPGK
GDF11 [1]
  IC50 (ng/mL), reporter gene assay, conditioned media: 121 ng/mL
Activin A [2]
  IC50 (ng/mL), reporter gene assay, conditioned media: 325 ng/mL

B3: ActRIIb-hFc (R64, 20-131) (Fc fusion)
chain: GRGEAETRECIYYNANWELERTNQSGLERCEGEQDKRLHCYASWRNSSGTIELVKKGCWLDDFNCYDRQECVATEENPQVYFCCCEGNFCNERFTHLPEAGGPEVTYEPPPTGGGTHTCPPCPAPELLGGPSVFLFPPKPKDTLMISRTPEVTCVVVDVSHEDPEVKFNWYVDGVEVHNAKTKPREEQYNSTYRVVSVLTVLHQDWLNGKEYKCKVSNKALPVPIEKTISKAKGQPREPQVYTLPPSREEMTKNQVSLTCLVKGFYPSDIAVEWESNGQPENNYKTTPPVLDSDGSFFLYSKLTVDKSRWQQGNVFSCSVMHEALHNHYTQKSLSLSPGK
GDF11 [1]
  IC50 (ng/mL), reporter gene assay, conditioned media: 183 ng/mL
Activin A [2]
  IC50 (ng/mL), reporter gene assay, conditioned media: 201 ng/mL
GDF11 [3]
  IC50 (ng/mL), reporter gene assay, conditioned media: 120 ng/mL
Activin A [4]
  IC50 (ng/mL), reporter gene assay, conditioned media: 44 ng/mL

B4: ActRIIB(20-134)-hFc (Fc fusion)
chain: GRGEAETRECIYYNANWELERTNQSGLERCEGEQDKRLHCYASWRNSSGTIELVKKGCWLDDFNCYDRQECVATEENPQVYFCCCEGNFCNERFTHLPEAGGPEVTYEPPPTAPTGGGTHTCPPCPAPELLGGPSVFLFPPKPKDTLMISRTPEVTCVVVDVSHEDPEVKFNWYVDGVEVHNAKTKPREEQYNSTYRVVSVLTVLHQDWLNGKEYKCKVSNKALPVPIEKTISKAKGQPREPQVYTLPPSREEMTKNQVSLTCLVKGFYPSDIAVEWESNGQPENNYKTTPPVLDSDGSFFLYSKLTVDKSRWQQGNVFSCSVMHEALHNHYTQKSLSLSPGK
GDF11 [3]
  IC50 (ng/mL), reporter gene assay, conditioned media: 45 ng/mL
Activin A [4]
  IC50 (ng/mL), reporter gene assay, conditioned media: 2 ng/mL

B5: ActRIIb-hFc (R64, 20-132) (Fc fusion)
chain: GRGEAETRECIYYNANWELERTNQSGLERCEGEQDKRLHCYASWRNSSGTIELVKKGCWLDDFNCYDRQECVATEENPQVYFCCCEGNFCNERFTHLPEAGGPEVTYEPPPTAGGGTHTCPPCPAPELLGGPSVFLFPPKPKDTLMISRTPEVTCVVVDVSHEDPEVKFNWYVDGVEVHNAKTKPREEQYNSTYRVVSVLTVLHQDWLNGKEYKCKVSNKALPVPIEKTISKAKGQPREPQVYTLPPSREEMTKNQVSLTCLVKGFYPSDIAVEWESNGQPENNYKTTPPVLDSDGSFFLYSKLTVDKSRWQQGNVFSCSVMHEALHNHYTQKSLSLSPGK
GDF11 [3]
  IC50 (ng/mL), reporter gene assay, conditioned media: 87 ng/mL
Activin A [4]
  IC50 (ng/mL), reporter gene assay, conditioned media: 32 ng/mL

B6: ActRIIb-hFc (R64, 20-128) (Fc fusion)
chain: GRGEAETRECIYYNANWELERTNQSGLERCEGEQDKRLHCYASWRNSSGTIELVKKGCWLDDFNCYDRQECVATEENPQVYFCCCEGNFCNERFTHLPEAGGPEVTYEPGGGTHTCPPCPAPELLGGPSVFLFPPKPKDTLMISRTPEVTCVVVDVSHEDPEVKFNWYVDGVEVHNAKTKPREEQYNSTYRVVSVLTVLHQDWLNGKEYKCKVSNKALPVPIEKTISKAKGQPREPQVYTLPPSREEMTKNQVSLTCLVKGFYPSDIAVEWESNGQPENNYKTTPPVLDSDGSFFLYSKLTVDKSRWQQGNVFSCSVMHEALHNHYTQKSLSLSPGK
GDF11 [3]
  IC50 (ng/mL), reporter gene assay, conditioned media: 130 ng/mL
Activin A [4]
  IC50 (ng/mL), reporter gene assay, conditioned media: 158 ng/mL

B7: ActRIIb-hFc (R64, 24-131) (Fc fusion)
chain: AETRECIYYNANWELERTNQSGLERCEGEQDKRLHCYASWRNSSGTIELVKKGCWLDDFNCYDRQECVATEENPQVYFCCCEGNFCNERFTHLPEAGGPEVTYEPPPTGGGTHTCPPCPAPELLGGPSVFLFPPKPKDTLMISRTPEVTCVVVDVSHEDPEVKFNWYVDGVEVHNAKTKPREEQYNSTYRVVSVLTVLHQDWLNGKEYKCKVSNKALPVPIEKTISKAKGQPREPQVYTLPPSREEMTKNQVSLTCLVKGFYPSDIAVEWESNGQPENNYKTTPPVLDSDGSFFLYSKLTVDKSRWQQGNVFSCSVMHEALHNHYTQKSLSLSPGK
GDF11 [1]
  IC50 (ng/mL), reporter gene assay, conditioned media: 69 ng/mL
Activin A [2]
  IC50 (ng/mL), reporter gene assay, conditioned media: 105 ng/mL

B8: ActRIIb-hFc (R64, 22-131) (Fc fusion)
chain: GEAETRECIYYNANWELERTNQSGLERCEGEQDKRLHCYASWRNSSGTIELVKKGCWLDDFNCYDRQECVATEENPQVYFCCCEGNFCNERFTHLPEAGGPEVTYEPPPTGGGTHTCPPCPAPELLGGPSVFLFPPKPKDTLMISRTPEVTCVVVDVSHEDPEVKFNWYVDGVEVHNAKTKPREEQYNSTYRVVSVLTVLHQDWLNGKEYKCKVSNKALPVPIEKTISKAKGQPREPQVYTLPPSREEMTKNQVSLTCLVKGFYPSDIAVEWESNGQPENNYKTTPPVLDSDGSFFLYSKLTVDKSRWQQGNVFSCSVMHEALHNHYTQKSLSLSPGK
GDF11 [1]
  IC50 (ng/mL), reporter gene assay, conditioned media: 71 ng/mL
Activin A [2]
  IC50 (ng/mL), reporter gene assay, conditioned media: 100 ng/mL
